US20260078416A1, “ORTHOGONAL METABOLIC FRAMEWORK FOR ONE-CARBON UTILIZATION” (Mojia Biotech Pte. Ltd., priority 2021, published 2026)

System: formaldehyde
Test: Cell-free prototyping of the α-reduction FORCE pathway with E. coli cell extracts
Format: biochemical
Conditions: 50 mM formaldehyde
From the text: A cell-free metabolic engineering approach was used to further prototype the FORCE pathways for product synthesis. […] As shown in FIG. 2 (in the formyl-CoA elongation panel), outside of the direct generation of 2-hydroxycarboxylates (e.g. glycolate) via thioester cleavage of the 2-hydroxyacyl-CoA generated by HACL, other C2 products, (including the aldose or aldehyde elongation pathways) require reduction of this 2-hydroxyacyl-CoA (glycolyl-CoA in the case of formaldehyde and formyl-CoA ligation). Listeria monocytogenes ACR (LmACR) are also able to act upon glycolaldehyde. […] With the inclusion of the previously identified HACL from Rhodospirillales bacterium URHD0017 (RuHACL), glycolate was observed.
Upon further addition of E. coli cell extract expressing diol dehydratase (DDR) from Klebsiella oxytoca, along with coenzyme B12, ethanol was detected (1.90±0.03 mM at one hour: FIG. 5b), likely due to the reduction of acetaldehyde by endogenous oxidoreductases, along with a corresponding decrease in ethylene glycol. […]
Enzyme expression and cell extract preparation was performed as described previously. […] Samples were centrifuged at 20817×g for 15 minutes and the supernatant analyzed by HPLC as described previously.

B1: E. coli FucO: E. coli 1,2-diol oxidoreductase, added as cell extract (protein, UniProt P0A9S1 1-382, looked up)
Lactaldehyde reductase: MANRMILNETAWFGRGAVGALTDEVKRRGYQKALIVTDKTLVQCGVVAKVTDKMDAAGLAWAIYDGVVPNPTITVVKEGLGVFQNSGADYLIAIGGGSPQDTCKAIGIISNNPEFADVRSLEGLSPTNKPSVPILAIPTTAGTAAEVTINYVITDEEKRRKFVCVDPHDIPQVAFIDADMMDGMPPALKAATGVDALTHAIEGYITRGAWALTDALHIKAIEIIAGALRGSVAGDKDAGEEMALGQYVAGMGFSNVGLGLVHGMAHPLGAFYNTPHGVANAILLPHVMRYNADFTGEKYRDIARVMGVKVEGMSLEEARNAAVEAVFALNRDVGIPPHLRDVGVRKEDIPALAQAALDDVCTGGNPREATLEDIVELYHTAW
modifications: added as cell extract
notes: E. coli 1,2-diol oxidoreductase, added as cell extract
ethylene glycol synthesis (extract added to LmACR and RuHACL extracts): 2.73 ± 0.03 mM
increase in ethylene glycol (vs without the added extract): 2 fold
